These results are taken from patent US11230581B2, “Peptides and combination of peptides for use in immunotherapy against ovarian cancer and other cancers” (Immatics Biotechnologies GmbH, priority 2015, dated 2022).

This test addresses HLA-A*02:01 (Homo sapiens, UniProt P04439, D140Y/D185E/D98H/E176V/E277Q/G131W/G231S/I119V/I121R/I166T/I218V/L300P/L318F/N151K/N90K/P208A/P217A/Q86G/Q94H/R138H/R169H/T345S). Description: MHC binding assay (UV-ligand exchange, β2m ELISA, peptide exchange yield). The settings on record: binding of HLA-class I restricted peptides to HLA-A*02:01, UV-ligand exchange. The text has this: Candidate peptides for T cell based therapies according to the present invention were further tested for their MHC binding capacity (affinity). The individual peptide-MHC complexes were produced by UV-ligand exchange, where a UV-sensitive peptide is cleaved upon UV-irradiation, and exchanged with the peptide of interest as analyzed. Only peptide candidates that can effectively bind and stabilize the peptide-receptive MHC molecules prevent dissociation of the MHC complexes. To determine the yield of the exchange reaction, an ELISA was performed based on the detection of the light chain (β2m) of stabilized MHC complexes. The assay was performed as generally described in Rodenko et al. (Rodenko et al., 2006).
96 well MAXISorp plates (NUNC) were coated over night with 2 ug/ml streptavidin in PBS at room temperature, washed 4× and blocked for 1h at 37° C. in 2% BSA containing blocking buffer. […] Peptide-MHC monomers of the UV-exchange reaction were diluted 100 fold in blocking buffer. Samples were incubated for 1 h at 37° C., washed four times, incubated with 2 ug/ml HRP conjugated anti-β2m for 1h at 37° C., washed again and detected with TMB solution that is stopped with […]. Absorption was measured at 450 nm. Candidate peptides that show a high exchange yield (preferably higher than 50%, most preferred higher than 75%) are generally preferred for a generation and production of antibodies or fragments thereof, and/or T cell receptors or fragments thereof, as they show sufficient avidity to the MHC molecules and prevent dissociation of the MHC complexes.
(In general: ELISA stands for enzyme-linked immunosorbent assay.)
In the case of “119 (FLYIGDIVSL; listed as Homo sapiens) [compound 119]”, the “Peptide exchange (MHC class I binding score, peptide exchange yield)” value (shortened to “Peptide exchange”) is reported as ““++++” (≥75% = ++++)”.

In the case of “120 (ALLGIPLTLV; listed as Homo sapiens) [compound 120]”, the “Peptide exchange” value is recorded as ““+++” (≥50 = +++)”. As for “121 (GVVDPRAISVL; listed as Homo sapiens) [compound 121]”, the entry is ““++” (≥20% = ++)”; as for “122 (FLLAEDDIYL; listed as Homo sapiens) [compound 122]”, ““+++” (≥50 = +++)”. With “123 (NLWDLTDASVV; listed as Homo sapiens) [compound 123]”, the “Peptide exchange” value was ““+++” (≥50 = +++)”.

On to “124 (ALYETELADA; listed as Homo sapiens) [compound 124]”, for which the “Peptide exchange” value was ““++” (≥20% = ++)”.

On to “125 (VQIHQVAQV; listed as Homo sapiens) [compound 125]”, for which the “Peptide exchange” value is ““+++” (≥50 = +++)”. On to “126 (VLAYFLPEA; listed as Homo sapiens) [compound 126]”, for which the “Peptide exchange” value is given as ““++++” (≥75% = ++++)”. Turning to “127 (KIGDEPPKV; listed as Homo sapiens) [compound 127]”, the “Peptide exchange” value is ““++” (≥20% = ++)”. As to “128 (YLFDDPLSAV; listed as Homo sapiens) [compound 128]”, the “Peptide exchange” value was ““++” (≥20% = ++)”. As for “129 (GLLDGGVDILL; listed as Homo sapiens) [compound 129]”, the “Peptide exchange” value was ““+++” (≥50 = +++)”. For the substance “130 (FLWNGEDSALL; listed as Homo sapiens) [compound 130]”, the “Peptide exchange” value is ““+++” (≥50 = +++)”. For the substance “131 (FVPPVTVFPSL; listed as Homo sapiens) [compound 131]”, the “Peptide exchange” value is ““++” (≥20% = ++)”.

Consider “132 (LLVEQPPLAGV; listed as Homo sapiens) [compound 132]”, for which the “Peptide exchange” value was ““+++” (≥50 = +++)”. As for “133 (KVLSNIHTV; listed as Homo sapiens) [compound 133]”, the entry is ““++” (≥20% = ++)”; as for “134 (YLQELIFSV; listed as Homo sapiens) [compound 134]”, ““+++” (≥50 = +++)”; as for “135 (ALSEVDFQL; listed as Homo sapiens) [compound 135]”, ““+++” (≥50 = +++)”. Regarding “136 (YLADPSNLFVV; listed as Homo sapiens) [compound 136]”, the “Peptide exchange” value is listed as ““+++” (≥50 = +++)”. As to “137 (TLVLTLPTV; listed as Homo sapiens) [compound 137]”, the “Peptide exchange” value is on record as ““++++” (≥75% = ++++)”. As to “138 (YQYPRAILSV; listed as Homo sapiens) [compound 138]”, the “Peptide exchange” value is reported as ““+++” (≥50 = +++)”.

For “139 (SVMEVNSGIYRV; listed as Homo sapiens) [compound 139]”, the “Peptide exchange” value is ““+++” (≥50 = +++)”.

In the case of “140 (YMDAPKAAL; listed as Homo sapiens) [compound 140]”, the “Peptide exchange” value is reported as ““++” (≥20% = ++)”. As for “141 (YLDFSNNRL; listed as Homo sapiens) [compound 141]”, the entry is ““++” (≥20% = ++)”; as for “142 (FLFATPVFI; listed as Homo sapiens) [compound 142]”, ““+++” (≥50 = +++)”. Consider “143 (LLLDITPEI; listed as Homo sapiens) [compound 143]”, for which the “Peptide exchange” value is given as ““++++” (≥75% = ++++)”.
